Here are results for three molecules from US20140065163A1 (MERCK SERONO S A, published 2014).

Like-named read-outs stand apart in the source and are kept apart here.

For test [1], the target named is T1, macaca GM-CSF (Macaca mulatta (identical in Macaca …, UniProt Q0MUT8 18-144 (Chlorocebus aethiops entry), limits assumed)).
T1 chain: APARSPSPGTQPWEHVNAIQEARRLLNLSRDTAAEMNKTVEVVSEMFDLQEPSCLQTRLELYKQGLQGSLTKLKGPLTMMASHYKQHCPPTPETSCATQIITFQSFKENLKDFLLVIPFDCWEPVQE
Description: cell-based or functional assay.

Test [2] deals with T2, human GM-CSF T117 (human, UniProt P04141 18-144). Description: cell-based or functional assay.
Test [3] addresses T3, human GM-CSF I117 (human, UniProt P04141 18-144). Description: cell-based or functional assay.
The target of test [4] is T1, macaca GM-CSF. Description: cell-based or functional assay.
The target in test [5] is T3, human GM-CSF I117. Description: TF-1 proliferation assay and KinExA. (In general: Kinetic exclusion samples the free partner from a solution-phase mixture.)
Test [6] has as its target T1, macaca GM-CSF. Description: KinExA, affinity in solution. The method, then:
(§1) The 4K21 and reference antibodies were incubated at concentration below the expected Kd with serial dilutions of human GM-CSF I117 or T117, or macaca GM-CSF up to equilibrium. The remaining free antibody was measured in a Kinetic exclusion assay with the KinExA® instrument. Kd was calculated by fitting the curve of the signal obtained versus the GM-CSF concentrations. The average of two experiments using different IgG concentrations was calculated.

Test [7] concerns the target T2, human GM-CSF T117. Description: KinExA, affinity in solution. The method, then:
as §1

The target of test [8] is T3, human GM-CSF I117. Description: KinExA, affinity in solution. The method, then:
as §1

In test [9] the target is T2, human GM-CSF T117. Description: cell-based or functional assay. This is another data set of the same source.
The target in test [10] is T3, human GM-CSF I117. Description: cell-based or functional assay. The source holds these as a separate data set.
Test [11] has as its target T1, macaca GM-CSF. Description: cell-based or functional assay.
The target of test [12] is T2, human GM-CSF T117. Description: cell-based or functional assay. The source holds these as a separate data set.
Test [13] concerns the target T3, human GM-CSF I117. Description: cell-based or functional assay. This is another data set of the same source.
Test [14] has as its target T1, macaca GM-CSF. Description: cell-based or functional assay.
The target of test [15] is T2, human GM-CSF T117. Description: cell-based or functional assay. This is another data set of the same source.
Target sequence in this assay (P04141 18-144 I117T limits assumed): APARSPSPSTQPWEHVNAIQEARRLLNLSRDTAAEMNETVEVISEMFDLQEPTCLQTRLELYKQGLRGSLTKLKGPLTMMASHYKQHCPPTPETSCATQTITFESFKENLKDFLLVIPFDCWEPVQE
Test [16] addresses T3, human GM-CSF I117. Description: cell-based or functional assay. This is another data set of the same source.
Target sequence in this assay (P04141 18-144 limits assumed): as the sequence (P04141 18-144 I117T limits assumed) above, with T100I counted along it
In test [17] the target is T4, human GM-CSF A117 mutant (human, UniProt P04141 18-144).
T4 construct: also called hGM-CSF A117; A117 protein
Description: competition ELISA: antibody on coated wild-type human GM-CSF, competitor soluble human GM-CSF A117; single condition, competitor concentration not shown. (In general: An ELISA detects its analyte on a solid surface through an enzyme-linked reagent.)

B1: humanized parental anti-GM-CSF 4K21 VH3-07.1AL+VK2-A3.2 hIgG1K antibody (MSB0010439) (antibody, V domains shown)
VH: EVQLVESGGGLVQPGGSLRLSCAASGFAFSAYDMSWVRQAPGKRLELVAYISSGGSSFYYPDTVKGRFTISRDNAKNSLYLQMNSLRAEDTAVYYCTRHLGFDYWGQGTLVTVSS
VL: DIVMTQSPLSLPVTPGEPASISCRSSQSLVNSNGNTYLHWYLQKPGQSPQLLIYKVSNRFSGVPDRFSGSGSGTDFTLKISRVEAEDVGVYYCSQSTHVPPTFGQGTKVEIK
notes: Human IgG1 kappa; also called humanized parental 4K21 hVH hVL; parental 4K21
On to B1, for which the “Fold macaca/human I117 (IC50, TF-1 proliferation)” value (shortened to “Fold macaca/human I117”) in [1] was found to be 5.7 fold; in test [14] it was 6.6 fold. Moreover, the “IC50, inhibition of GM-CSF induced TF-1 proliferation (32 pM GM-CSF)” value (from here on “IC50, inhibition … (32 pM GM-CSF)”) in test [1] came out at 557 pM; in [2] it was 947 pM; in [3], 98 pM; in [14], 793 pM; in test [15], 1400 pM; in test [16], 121 pM. Further, the figures for the “Fold human T117/I117 (IC50, TF-1 proliferation)” value (“Fold human T117/I117” below) in test [2] and in test [15] were 9.7 fold and 11.6 fold, respectively. In addition, in test [4], the “neutralizing the orthologs of cynomolgus and rhesus monkeys (TF-1 proliferation assay)” value is less than 10 fold. Further, in test [5], the “fold preference for GM-CSF I117 versus T117” value was more than 10 fold. For the same molecule, the dissociation constant (Kd) was 0.063 nM in [6], 0.164 nM in test [7] and 0.021 nM in [8]. Further, the “Emax (%), inhibition of CD11b upregulation on neutrophils after GM-CSF stimulation” value (from here on “Emax (%), inhibition”) in test [9] was determined as 68%; in test [10], 65%. The “IC50, inhibition of CD11b upregulation on neutrophils after GM-CSF stimulation” value (“IC50, inhibition of CD11b upregulation” for short) worked out at 31.6 nM in test [9] and 3.06 nM in [10]. The “IC50, inhibition of GM-CSF induced IL-8 secretion in U937 cells (65 pM GM-CSF)” value (shortened to “IC50, inhibition … (65 pM GM-CSF)”) in test [11] worked out at 1120 pM; in test [12], 930 pM; in [13], 170 pM. For the same molecule, in [14], the “Fold improvement of 4K21 H93Y alone on macaca (IC50, TF-1 proliferation)” value was 0.1 fold. In addition, the “Fold improvement of humanized parental 4K21 on macaca (IC50, TF-1 proliferation)” value in [14] was 1 fold. In addition, the “Fold improvement of 4K21 H93Y alone on T117 (IC50, TF-1 proliferation)” value in test [15] was 0.1 fold. In test [15], the “Fold improvement of humanized parental 4K21 on T117 (IC50, TF-1 proliferation)” value was 1 fold. For the same molecule, in [16], the “Fold improvement of 4K21 H93Y alone on I117 (IC50, TF-1 proliferation)” value was found to be 0.2 fold. In addition, the “Fold improvement of humanized parental 4K21 on I117 (IC50, TF-1 proliferation)” value in test [16] was 1 fold.

B2: MSB0010601 4K21 (4K21 hVH S55K-T62S hVL N28I-H34S-N53R-H93Y) (antibody, V domains shown)
VH: EVQLVESGGGLVQPGGSLRLSCAASGFAFSAYDMSWVRQAPGKRLELVAYISSGGKSFYYPDSVKGRFTISRDNAKNSLYLQMNSLRAEDTAVYYCTRHLGFDYWGQGTLVTVSS
VL: DIVMTQSPLSLPVTPGEPASISCRSSQSLVNSIGNTYLSWYLQKPGQSPQLLIYKVSRRFSGVPDRFSGSGSGTDFTLKISRVEAEDVGVYYCSQSTYVPPTFGQGTKVEIK
notes: IgG; also called optimized 4K21 antibody
Molecule B2 had a Kd in test [6] of 0.012 nM. In test [7], this molecule returned a Kd of 0.005 nM. In test [8], the Kd turned out to be 0.006 nM. The binding result in [17] is given as “binds”. Moreover, in test [9], the “Emax (%), inhibition” value is 97% and the “IC50, inhibition of CD11b upregulation” value was found to be 2.03 nM. For the same molecule, in test [10], the “Emax (%), inhibition” value came out at 79% and the “IC50, inhibition of CD11b upregulation” value came to 1.41 nM. Also, the “IC50, inhibition … (65 pM GM-CSF)” value in [11] stood at 340 pM. In addition, in [12], the “IC50, inhibition … (65 pM GM-CSF)” value turned out to be 263 pM. Besides, in test [13], the “IC50, inhibition … (65 pM GM-CSF)” value was 334 pM. Moreover, in test [14], the “Fold improvement of 4K21 H93Y alone on macaca (IC50, TF-1 proliferation)” value was 1.8 fold; the “Fold improvement of humanized parental 4K21 on macaca (IC50, TF-1 proliferation)” value is 15 fold; the “Fold macaca/human I117” value was 2.3 fold; the “IC50, inhibition … (32 pM GM-CSF)” value came to 53 pM. In [15], the “Fold human T117/I117” value stood at 0.9 fold; the “Fold improvement of 4K21 H93Y alone on T117 (IC50, TF-1 proliferation)” value was determined as 8.3 fold; the “Fold improvement of humanized parental 4K21 on T117 (IC50, TF-1 proliferation)” value was found to be 68 fold; the “IC50, inhibition … (32 pM GM-CSF)” value worked out at 21 pM. Moreover, in test [16], the “Fold improvement of 4K21 H93Y alone on I117 (IC50, TF-1 proliferation)” value worked out at 1.3 fold; the “Fold improvement of humanized parental 4K21 on I117 (IC50, TF-1 proliferation)” value turned out to be 5.3 fold; the “IC50, inhibition … (32 pM GM-CSF)” value came to 23 pM.

B3: anti-GM-CSF 4K21 hIgG1K antibody (MSB0010259), recombinant chimeric 4K21 (antibody, V domains shown)
VH: EVQLVESGGGLVKSGGSLKLSCAASGFAFSAYDMSWVRQTPEKRLELVAYISSGGSSFYYPDTVKGRFTISRDNAKNTLYLQMSSLKSEDTAMYYCTRHLGFDYWGQGTTLTVSS
VL: DVVMTQTPLSLPVSLGDQASISCRSSQSLVNSNGNTYLHWFLQKPGQSPKLLIYKVSNRFSGVPDRFSGSGSGTDFTLKISRVEAEDLGVYFCSQSTHVPPTFGGGTKLEIK
notes: Murine variable domains fused to human constant IgG1 heavy chain and kappa light chain domains
In turn, B3 had a Kd in test [6] of 0.104 nM. Also, binding in [7] was put at a Kd of 0.174 nM. The same molecule returned a Kd in test [8] of 0.017 nM. Further, in test [14], the “Fold improvement of 4K21 H93Y alone on macaca (IC50, TF-1 proliferation)” value came to 0.1 fold; the “Fold improvement of humanized parental 4K21 on macaca (IC50, TF-1 proliferation)” value came to 0.7 fold; the “Fold macaca/human I117” value came out at 9.3 fold; the “IC50, inhibition … (32 pM GM-CSF)” value was 1220 pM. Further, in test [15], the “Fold human T117/I117” value was determined as 10.8 fold; the “Fold improvement of 4K21 H93Y alone on T117 (IC50, TF-1 proliferation)” value came to 0.1 fold; the “Fold improvement of humanized parental 4K21 on T117 (IC50, TF-1 proliferation)” value turned out to be 1 fold; the “IC50, inhibition … (32 pM GM-CSF)” value was determined as 1410 pM. In test [16], the “Fold improvement of 4K21 H93Y alone on I117 (IC50, TF-1 proliferation)” value is 0.2 fold; the “Fold improvement of humanized parental 4K21 on I117 (IC50, TF-1 proliferation)” value was determined as 0.9 fold; the “IC50, inhibition … (32 pM GM-CSF)” value was determined as 130 pM.

The term Kd denotes the equilibrium constant for the complex coming apart. Read a high Kd as a looser complex.
